{"source": "patent US20130071418", "key": {"PCP-consensus VPg": {"test_system": "T1, PCP-consensus VPg", "T1 sequence": "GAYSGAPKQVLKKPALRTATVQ"}}}
{"substance": "Coxsackie virus A25 polymerase (CVA Pol3D)", "values": [{"measurement": "uridylylation of VPg by Pol3D", "setting": "CVA24 VPg", "value": "uridylylated the PCP-consensus VPg as well or better than the one encoded in their respective genomes"}, {"measurement": "uridylylation of VPg by Pol3D", "setting": "PCP-consensus VPg", "value": "both the PV-Pol3D and that of CVA uridylylated the PCP-consensus VPg as well or better than the one encoded in their respective genomes"}]}
